Tests used:
[1] = molecular target: LOXL2 (lysyl oxidase-like 2) (human) (UniProt Q9Y4K0); assay: cell-based or functional assay
[2] = molecular target: LOXL2 (lysyl oxidase-like 2) (human) (UniProt Q9Y4K0); assay: SPR, Bio-Rad ProteOn, amine coupling, 25 C

LOXL2 (lysyl oxidase-like 2) (human), sequence (Q9Y4K0 26-774 limits assumed): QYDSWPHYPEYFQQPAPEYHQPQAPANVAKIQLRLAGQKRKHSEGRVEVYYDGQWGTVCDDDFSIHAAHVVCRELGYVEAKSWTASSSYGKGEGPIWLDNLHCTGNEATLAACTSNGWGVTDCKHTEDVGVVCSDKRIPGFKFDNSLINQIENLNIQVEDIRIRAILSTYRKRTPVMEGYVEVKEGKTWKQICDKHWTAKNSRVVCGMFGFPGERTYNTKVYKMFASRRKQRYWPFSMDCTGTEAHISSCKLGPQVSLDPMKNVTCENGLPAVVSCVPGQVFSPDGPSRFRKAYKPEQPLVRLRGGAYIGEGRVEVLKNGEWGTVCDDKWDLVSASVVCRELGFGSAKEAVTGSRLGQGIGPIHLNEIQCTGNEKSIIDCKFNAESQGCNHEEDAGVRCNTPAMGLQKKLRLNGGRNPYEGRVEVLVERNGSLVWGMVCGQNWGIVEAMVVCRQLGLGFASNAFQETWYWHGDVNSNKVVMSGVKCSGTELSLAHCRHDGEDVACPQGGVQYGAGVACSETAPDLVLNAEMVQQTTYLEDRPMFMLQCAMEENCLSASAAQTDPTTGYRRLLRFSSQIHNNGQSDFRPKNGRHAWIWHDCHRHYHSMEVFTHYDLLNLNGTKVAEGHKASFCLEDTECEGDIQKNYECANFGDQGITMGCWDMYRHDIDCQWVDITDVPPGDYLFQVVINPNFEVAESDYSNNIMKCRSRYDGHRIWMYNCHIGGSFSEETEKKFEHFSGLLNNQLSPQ

apparent IC50, LOXL2 enzymatic activity (amplex red/HRP coupled assay, 1,5-diaminopentane substrate) [1]: 30 nM | α (effect of the antibody on substrate affinity; mode of inhibition) [1]: 1 | β (effect of the antibody on the rate of the enzyme; mode of inhibition) [1]: 0.5 | Kd [2]: 0.1 to 1 nM | t1/2 [2]: 1.65 h
B1: anti-LOXL2 antibody AB0023 (murine monoclonal antibody) (antibody, V domains shown)
VH: QVQLQQSGAELVRPGTSVKVSCKASGYAFTYYLIEWVKQRPGQGLEWIGVINPGSGGTNYNEKFKGKATLTADKSSSTAYMQLSSLTSDDSAVYFCARNWMNFDYWGQGTTLTVSS
VL: DIVMTQAAPSVSVTPGESVSISCRSSKSLLHSNGNTYLYWFLQRPGQSPQFLIYRMSNLASGVPDRFSGSGSGTAFTLRISRVEAEDVGVYYCMQHLEYPYTFGGGTKLEIK

— patent US20120087917A1
